From CN101415728A (dated 2009)

B1: M13-C06 Fab (Fab, V domains shown)
VH: EVQLLESGGGLVQPGGSLRLSCAASGFTFSIYRMQWVRQAPGKGLEWVSGISPSGGTTWYADSVKGRFTISRDNSKNTLYLQMNSLRAEDTAVYYCARWSGGSGYAFDIWGQGTMVTVSS
VL: DIQMTQSPLSLSASVGDRVTITCQASRDIRNYLNWYQQKPGKAPKLLIYDASSLQTGVPSRFGGSGSGTDFSFTIGSLQPEDIATYYCQQFDSLPHTFGQGTKLEIK
notes: Human Fab from a phage library (VH3-23 germline framework, kappa light chain)
B2: M13-C06 antibody (full-length, IgG4 version not stated) (antibody, V domains shown)
VH: B1 VH
VL: B1 VL
notes: Fully human full-length antibody; In tr-FRET it carried a europium chelate (10.3:1 Eu:C06); also called M13-C06_Ab; Eu-C06
B3: 小鼠IGF-1R(1-903)-Fc (Fc fusion)
chain: not shown
notes: range 1-903; also called mIGF-1R-Fc; mIGF1R; not shown: C-terminal human IgG1-Fc tag
B4: M14-G11.G4.P (antibody, human IgG4, V domains shown, not shown: a dimerising Fc or GST)
VH: EVQLLESGGGLVQPGGSLRLSCAASGFTFSNYPMYWVRQAPGKGLEWVSRISSSGGRTVYADSVKGRFTISRDNSKNTLYLQMNSLRAEDTAVYYCARDRWSRSAAEYGLGGYWGQGTLVTVSS
VL: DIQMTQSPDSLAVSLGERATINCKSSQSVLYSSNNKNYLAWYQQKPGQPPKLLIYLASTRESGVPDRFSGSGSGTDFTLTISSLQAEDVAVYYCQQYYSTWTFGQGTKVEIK
B5: M14-B01 Fab (Fab, V domains shown)
VH: EVQLLESGGGLVQPGGSLRLSCAASGFTFSNYHMAWVRQAPGKGLEWVSVISPTGGRTTYADSVKGRFTISRDNSKNTLYLQMNSLRAEDTATYYCARAGYSYGYGYFDYWGQGTLVTVSS
VL: DIQMTQFPATLSVSPGERATLSCRASQSVMRNLAWYQQKPGQPPRLLIYGASKRATGIPARFSGSGSGTAFTLTISNLEPEDFAVYYCHQRSTWPLGTFGPGTKLEAK
notes: Human Fab from a phage library (VH3-23, kappa)
B6: M12-E01 Fab (Fab, V domains shown)
VH: EVQLLESGGGLVQPGGSLRLSCAASGFTFSPYSMLWVRQAPGKGLEWVSSIGSSGGSTRYADSVKGRFTISRDNSKNTLYLQMNSLRAEDTAMYYCARVRGILHYDILIGRNLYYYYMDVWGKGTTVTVSS
VL: QYELTQPPSVSEAPRQRVTISCSGSSSNIGNNAINWYQQLPGKPPKLLIYYDDLLPSGVSDRFSGSKSGTSGSLAISGLQSEDEADYYCAAWDDNLNGVIFGGGTKLTVL
notes: Human Fab from a phage library (VH3-23, lambda light chain)

Columns and labels:
小鼠IGF-1R(1-903)-Fc [1] = biological target: B3; experiment: SPR, receptor-Fc captured by anti-human IgG-Fc, Fab injected, 1:1 model
Sequence of 小鼠IGF-1R(1-903)-Fc (Q60751 31-933 limits assumed): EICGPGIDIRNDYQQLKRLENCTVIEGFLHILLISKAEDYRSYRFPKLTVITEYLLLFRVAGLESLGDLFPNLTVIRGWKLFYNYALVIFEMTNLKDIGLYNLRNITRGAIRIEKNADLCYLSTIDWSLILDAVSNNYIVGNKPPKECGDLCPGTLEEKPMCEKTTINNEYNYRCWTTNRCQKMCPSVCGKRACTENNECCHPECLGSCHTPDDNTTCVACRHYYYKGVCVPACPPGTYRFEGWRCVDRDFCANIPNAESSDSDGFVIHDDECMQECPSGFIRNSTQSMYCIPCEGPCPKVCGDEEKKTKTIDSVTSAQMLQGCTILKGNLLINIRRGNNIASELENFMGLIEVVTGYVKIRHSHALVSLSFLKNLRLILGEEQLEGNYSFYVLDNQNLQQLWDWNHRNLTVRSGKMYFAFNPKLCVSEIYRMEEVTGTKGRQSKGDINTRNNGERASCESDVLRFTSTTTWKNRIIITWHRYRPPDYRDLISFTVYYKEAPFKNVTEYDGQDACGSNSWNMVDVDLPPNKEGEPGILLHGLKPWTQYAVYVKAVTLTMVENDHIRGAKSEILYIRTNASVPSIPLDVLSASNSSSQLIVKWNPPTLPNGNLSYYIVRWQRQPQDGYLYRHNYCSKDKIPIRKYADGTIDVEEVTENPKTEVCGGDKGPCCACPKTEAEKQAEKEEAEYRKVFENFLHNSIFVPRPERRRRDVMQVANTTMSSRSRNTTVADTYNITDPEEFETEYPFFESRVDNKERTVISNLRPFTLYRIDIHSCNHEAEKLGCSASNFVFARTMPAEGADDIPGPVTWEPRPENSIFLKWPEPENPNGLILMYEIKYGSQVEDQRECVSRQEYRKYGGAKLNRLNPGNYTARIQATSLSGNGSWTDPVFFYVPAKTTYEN

小鼠IGF-1R(1-903)-Fc [2] = biological target: B3; experiment: SPR, compared with hIGF-1R-Fc
小鼠IGF-1R(1-903)-Fc [3] = biological target: B3; experiment: SPR, receptor-Fc captured by anti-human IgG-Fc, Fab injected, 1:1 model (also printed as 89.1nM)
小鼠IGF-1R(1-903)-Fc [4] = biological target: B3; experiment: SPR, second run with 3 h dissociation
人INSR(28-956)-His 10 [5] = biological target: T1, 人INSR(28-956)-His 10 (human, UniProt P06213 28-956); experiment: ELISA on plates coated with rh-INSR
T1 construct: range 28-956; Bought from R&D Systems; also called INSR-His 10; rh-INSR (R&D Systems #1544-IR)
T1 sequence (P06213 other isoform, or with tags, fused parts or gaps limits assumed): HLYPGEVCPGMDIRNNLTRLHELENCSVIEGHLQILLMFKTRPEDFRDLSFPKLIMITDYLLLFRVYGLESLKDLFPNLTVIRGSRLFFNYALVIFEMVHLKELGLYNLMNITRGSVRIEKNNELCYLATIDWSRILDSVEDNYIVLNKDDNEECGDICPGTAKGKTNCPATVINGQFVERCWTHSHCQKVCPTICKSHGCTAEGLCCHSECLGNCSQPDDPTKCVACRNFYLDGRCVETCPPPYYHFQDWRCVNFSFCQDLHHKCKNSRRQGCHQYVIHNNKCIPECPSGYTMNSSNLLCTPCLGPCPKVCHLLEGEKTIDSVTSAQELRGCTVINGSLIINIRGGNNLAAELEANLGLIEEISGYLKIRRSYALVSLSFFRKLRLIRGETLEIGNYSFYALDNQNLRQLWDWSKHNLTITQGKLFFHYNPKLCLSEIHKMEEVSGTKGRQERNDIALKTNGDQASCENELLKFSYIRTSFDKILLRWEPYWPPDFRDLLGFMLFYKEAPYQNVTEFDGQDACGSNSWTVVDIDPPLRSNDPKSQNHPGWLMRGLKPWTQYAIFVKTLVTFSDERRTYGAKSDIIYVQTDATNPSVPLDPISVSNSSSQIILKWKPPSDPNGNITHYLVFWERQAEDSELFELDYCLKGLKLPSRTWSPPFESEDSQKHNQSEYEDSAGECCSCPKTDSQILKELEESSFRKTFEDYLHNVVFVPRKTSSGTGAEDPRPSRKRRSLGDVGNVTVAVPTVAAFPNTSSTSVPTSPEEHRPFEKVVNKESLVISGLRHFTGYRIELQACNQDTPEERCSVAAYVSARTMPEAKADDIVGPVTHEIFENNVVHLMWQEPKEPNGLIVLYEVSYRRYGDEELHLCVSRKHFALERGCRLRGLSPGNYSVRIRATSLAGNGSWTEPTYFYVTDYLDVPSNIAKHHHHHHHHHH

人INSR(28-956)-His 10 [6] = biological target: T1, 人INSR(28-956)-His 10; experiment: tr-FRET competition (Eu-C06 / Cy5-hIGF-1R-His10)
[7] = biological target: B2; experiment: tr-FRET competition against Cy5-IGF1R-His10 for Eu-C06
[8] = biological target: human IGF-1R expressed on cells (human); experiment: cell-based or functional assay

## B1
小鼠IGF-1R(1-903)-Fc [1]
  kon: 471 M⁻¹ s⁻¹
小鼠IGF-1R(1-903)-Fc [2]
  fold decrease of binding against human IGF-1R: 100 fold
小鼠IGF-1R(1-903)-Fc [3]
  Kd: 89.1 nM
小鼠IGF-1R(1-903)-Fc [4]
  koff: 4.2e-05 s⁻¹
人INSR(28-956)-His 10 [5]
  binding result: no binding (tested: 2μM)

## B2
人INSR(28-956)-His 10 [6]
  binding result: no binding (tested: IC50以上100倍的浓度)

## B3
[7]
  IC50: > 100 µg/mL

## B4
[8]
  inhibition of IGF-1- and IGF-2-mediated IGF-1R phosphorylation in MCF-7 cells, EC50: < 1 nM

## B5
人INSR(28-956)-His 10 [5]
  binding result: no binding (tested: 2μM)

## B6
人INSR(28-956)-His 10 [5]
  binding result: no binding (tested: 2μM)
